Tests used:
[1] = tested on: Fas/APO1-induced death of HeLa cells; experiment: Death of HeLa cells expressing Fas/APO1 induced by anti-Fas/APO1 antibody and cycloheximide; format: cell-based, human; conditions: HeLa cells transiently expressing Fas/APO1; CH11 0.5 μg/ml, cycloheximide 10 μg/ml
Procedure: In brief, 293-EBNA cells, MCF7 human breast carcinoma cells and HeLa HtTA-1 cells were grown in Dulbecco's modified Eagle's minimal essential medium supplemented with 10% fetal calf serum, nonessential amino acids, 100 U/ml penicillin and 100 μg/ml streptomycin. Cell tissue culture dishes (5×10^5 293-EBNA cells, 3×10^5 s MCF7 cells or 3×10^5 HeLa cells in 6-cm dishes) were transiently transfected, using the calcium phosphate precipitation method, with the cDNAs of the indicated proteins together with the β-galactosidase expression vector. In the experiments presented in FIGS. 14A-D and 15, each dish was transfected with 3.5 μg of the indicated MACH construct and 1.5 μg of pSV-β-gal. In the experiments presented in FIGS. 16A-D and 17-19, each dish was transfected with 2.5 μg of the indicated MACH or MORT1 construct (or, as control, empty vector) and 1.5 μg of pSV-β-gal. The cells were rinsed 6 to 10 h after transfection. The 293-EBNA and MCF7 cells were incubated for a further 18 h without additional treatment. The HeLa cells were incubated for 26 h after transfection and-then for 5 h in the presence of either anti-Fas.APO1 antibody (CH11, 0.5 μg/ml) or TNF (100 ng/ml), together with cycloheximide (10 μg/ml). The extent of cell death at the end of the incubation periods was assessed by determination of β-galactosidase expression, as described by Kumar et al, 1994.
The HeLa cells were made responsive to Fas/APO1 by transient expression of this receptor. […] These protective effects indicate that MACHα is a necessary component of both the Fas/APO1- and the p55-R-induced signaling cascades for cell death.
In particular, FIGS. 16A-D show morphology of 293-EBNA cells in which cell death was induced by transient expression of a chimera comprised of the extracellular domain of the p55-R (amino acids 1-168) fused to the transmembrane and intracellular domains of Fas/APO1 (amino acids 153-319) (p55-Fas chimera) (FIGS. 16A and 16B), or by expression of the p55-R (FIGS. 16C and 16D), and of cells that were protected from these cytotoxic effects by their simultaneous transfection with MACHα1 (C360S) (FIGS. 16B and 16D). Photographs were taken 26 h after transfection. FIG. 17 illustrates the quantification of death induced in 293-EBNA cells by their transfection with p55-Fas chimera or with p55-R, together with an empty vector, a MORT1 deletion mutant lacking the MACH-binding region (MORT1 (92-208)), or MACHα molecules containing a nonfunctional CED3/ICE region. […] Data are from at least two independent experiments and are expressed as in FIGS. 14A-F and 15.

CD40 = molecular target: T1, CD40 (Homo sapiens, UniProt P25942); experiment: Two-hybrid test of MORT-1 binding (FIG. 1), CD40; conditions: CD40-IC residues 216-277, FIG. 1
T1 construct: human CD40 (CD40-IC, residues 216-277); expressed in transfected cells; host or cells: SFY526 yeast
T1 sequence (P25942 216-277): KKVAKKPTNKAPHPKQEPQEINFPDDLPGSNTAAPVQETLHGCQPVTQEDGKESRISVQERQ
Source text: To isolate proteins interacting with the intracellular domain of the FAS-R, the yeast two-hybrid system was used (Fields and Song, 1989). […] In this system, the genes for the candidate interacting proteins are cloned into separate expression vectors. In one expression vector, the sequence of the one candidate protein is cloned in phase with the sequence of the GAL4 DNA-binding domain to generate a hybrid protein with the GAL4 DNA-binding-domain, and in the other vector, the sequence of the second candidate protein is cloned in phase with the sequence of the GAL4 activation domain to generate a hybrid protein with the GAL4-activation domain. The two hybrid vectors are then co-transformed into a yeast host strain having a lacZ or HIS3 reporter gene under the control of upstream GAL4 binding sites. Only those transformed host cells (cotransformants) in which the two hybrid proteins are expressed and are capable of interacting with each other, will be capable of expressing the reporter gene. In the case of the lacZ reporter gene, host cells expressing this gene will become blue in color when X-gal is added to the cultures. […]
In FIG. 1, there is depicted the interaction of the proteins encoded by the Gal4 DNA binding domain and activation-domain constructs (pGBT9 and pGAD-GH) within transfected SFY526 yeasts as assessed by β-galactosidase expression filter assay. […]

B1: MACHα1 (C360S): MACHα1 mutant in which the catalytic cysteine Cys360 is replaced by Ser (protein)
chain: MDFSRNLYDIGEQLDSEDLASLKFLSLDYIPQRKQEPIKDALMLFQRLQEKRMLEESNLSFLKELLFRINRLDLLITYLNTRKEEMERELQTPGRAQISAYRVMLYQISEEVSRSELRSFKFLLQEEISKCKLDDDMNLLDIFIEMEKRVILGEGKLDILKRVCAQINKSLLKIINDYEEFSKERSSSLEGSPDEFSNGEELCGVMTISDSPREQDSESQTLDKVYQMKSKPRGYCLIINNHNFAKAREKVPKLHSIRDRNGTHLDAGALTTTFEELHFEIKPHDDCTVEQIYEILKIYQLMDHSNMDCFICCILSHGDKGIIYGTDGQEAPIYELTSQFTGLKCPSLAGKPKVFFIQASQGDNYQKGIPVETDSEEQPYLEMDLSSPQTRYIPDEADFLLGMATVNNCVSYRNPAEGTWYIQSLCQSLRERCPRGDDILTILTEVNYEVSNKDDKKNMGKQMPQPTFTLRKKLVFPSD
[1]
  protection against death induced by anti-Fas/APO1 antibody and cycloheximide: prevention

B2: MORT-1: Mediator of Receptor-induced Toxicity; protein binding the intracellular domain of FAS-R, SEQ ID NO:2 (protein)
chain: VNQAPECRFGGGILGPLGKRRDLARASEPRTEGARRAGPQPRPLADPAMDPFLVLLHSVSSSLSSSELTELKFLCLGRVVKRKLERVQSGLDLFSMLLEQNDLEPGHTELLRELLASLRRHDLLRRVDDFEAGAAAGAAPGEEDLCAAFNVICDNVGKDWRRLARQLKVSDTKIDSIEDRYPRNLTERVRESLRIWKNTEKENATVAHLVGALRSCQMNLVADLVQEVQQARDLQNRSGAMSPMSWNSDASTSEAS
CD40
  binding to CD40 in two-hybrid test: not

Source: patent US7799901B2, “Modulators of the function of FAS receptors and other proteins” (Yeda Research and Development Co. Ltd., priority 1995, dated 2010)
